Experimental data as given in patent US20220184120A1 (MINERVA BIOTECHNOLOGIES, published 2022).

B3: C-10 peptide (PSMGFR minus 10 amino acids from the C-terminus) (peptide)
peptide: GTINVHDVETQFNQYKTEAASRYNLTISDVSVSDV
notes: also called C-10 PSMGFR; PSMGFR C-10

What was measured:
[1] = target: B3; experiment: ELISA
[2] = target: T1, PSMGFR peptide (Primary Sequence of the MUC1 Growth Factor Receptor); experiment: ELISA (FIG. 2C)
T1 construct: synthetic peptide immobilised on ELISA plates; also called MUC1* peptide; MUC1* extra cellular domain peptide
T1 peptide: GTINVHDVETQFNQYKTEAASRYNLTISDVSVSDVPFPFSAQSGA

[3] = target: T2, N+20/C-27 peptide (20 amino acids added onto the N-terminus and 27 deleted from the C-terminus of PSMGFR); experiment: ELISA (FIG. 63)
T2 peptide: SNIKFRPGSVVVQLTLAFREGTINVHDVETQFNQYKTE
Experimental: (§1) ELISA assays were performed to determine if, in addition to recognizing their immunizing peptide, they recognized PSMGFR, N−10 or C−10. In addition, they were tested for their ability to bind to N+20/C−27, N+9/C−9. We first did the ELISA assay on our set of reference antibodies, MNC2, MNE6, which we know are cancer-specific plus MNC3, which we know recognizes stem cells and progenitor cells (FIG. 63A-63B). None of the reference antibodies bound to the N+20/C−27 peptide. MNC2 and MNE6 cannot bind to PSMGFR peptides with 27, 10 or 9 C-terminal deletions, however, MNC3 binds to C−10 and to N+9/C−9 peptides.

[4] = target: T3, N+9/C-9 peptide (9 amino acids added onto the N-terminus and 9 deleted from the C-terminus of PSMGFR); experiment: ELISA (FIG. 63A)
T3 peptide: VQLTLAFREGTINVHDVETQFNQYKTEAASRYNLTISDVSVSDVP
Experimental: as §1

[5] = target: T4, N-10 peptide (PSMGFR minus 10 amino acids from the N-terminus); experiment: ELISA (FIG. 2B-2C)
T4 construct: also called N-10 PSMGFR; PSMGFR N-10
T4 peptide: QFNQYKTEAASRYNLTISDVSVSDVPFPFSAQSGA

[6] = target: B3; experiment: ELISA (recap in IHC legend)
[7] = target: T1, PSMGFR peptide (Primary Sequence of the …); experiment: ELISA, PSMGFR peptide on plate (FIG. 5)
Experimental: Humanized MN-C2 scFv is then incubated with the surface, washed and detected according to standard methods.

NME7-AB (recombinant) = target: T5, NME7-AB (recombinant) (Homo sapiens (Human), UniProt Q9Y5B8 92-376); experiment: ELISA (FIG. 2A)
T5 construct: the entry ends in a His tag; also called NM23-H7
T5 sequence: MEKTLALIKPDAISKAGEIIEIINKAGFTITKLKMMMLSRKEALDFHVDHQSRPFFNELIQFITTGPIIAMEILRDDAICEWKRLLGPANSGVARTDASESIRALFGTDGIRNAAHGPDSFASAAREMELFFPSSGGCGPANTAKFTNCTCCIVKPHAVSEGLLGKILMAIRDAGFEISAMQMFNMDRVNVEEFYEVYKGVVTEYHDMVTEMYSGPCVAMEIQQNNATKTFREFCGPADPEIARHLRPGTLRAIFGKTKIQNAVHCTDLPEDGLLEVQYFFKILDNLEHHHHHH
Experimental: (§2) FIGS. 2A-2I show results of ELISA assays. MUC1* peptides PSMGFR, PSMGFR minus 10 amino acids from the N-terminus aka N−10, or PSMGFR minus 10 amino acids from the C-terminus, aka C−10 are immobilized on the plate and the following are assayed for binding: NME7-AB (FIG. 2A), MN-C2 monoclonal antibody (FIG. 2B), MN-E6 monoclonal antibody (FIG. 2C), or dimeric NME1 (FIG. 2D). […] MUC1* peptides PSMGFR minus 10 amino acids from the N-terminus aka N−10, or PSMGFR minus 10 amino acids from the C-terminus, aka C−10, are immobilized on the plate and the following are assayed for binding: MN-C3 (FIG. 2E) and MN-C8 (FIG. 2F).

dimeric NME1 = target: T6, dimeric NME1 (human, UniProt P15531 1-152, limits assumed); experiment: ELISA (FIG. 2D)
T6 construct: also called NM23-H1 dimers; dimeric NM23-H1
T6 sequence (P15531 whole entry): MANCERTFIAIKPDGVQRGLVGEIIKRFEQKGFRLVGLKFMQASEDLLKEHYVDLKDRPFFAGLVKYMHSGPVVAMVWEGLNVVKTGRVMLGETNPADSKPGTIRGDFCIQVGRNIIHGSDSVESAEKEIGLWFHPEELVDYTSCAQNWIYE
Experimental: as §2

[8] = target: T4, N-10 peptide (PSMGFR minus 10 amino …); experiment: ELISA
[9] = target: T1, PSMGFR peptide (Primary Sequence of the …); experiment: ELISA (FIG. 65A)
Source text: The antibodies being tested were derived from animals immunized with the N+20/C−27 peptide. The first selection criteria was to confirm that the antibodies bound to the immunizing N+20/C−27 peptide. […] Although these antibodies were raised against the N+20/C−27 peptide, all but one, 45C11, still bind to the PSMGFR peptide. […] 1E4 was able to bind to the N+20/C−27 peptide, the PSMGFR and the N−10 peptide, consistent with the idea that its epitope must lie within the […] sequence. […] The color of the bars for each antibody in the ELISA graph are color coded to match the deductive cognate sequence, or a portion thereof, of that antibody.
This same ELISA assay was performed on the antibodies of the invention (FIG. 64-66 and FIG. 201). Note that only 20A10 exactly matches the binding profile of MNC2 and MNE6. 25E6, 28F9 and 18G12 are all able to bind to the N−10 peptide. 18B4 is the only antibody raised against the PSMGFR peptide that requires the 10 most N-terminal amino acids of the peptide. The color of the bars for each antibody in the ELISA graph are color coded to match the deductive cognate sequence, or a portion thereof, of that antibody. In addition, another set of antibodies was assayed by ELISA (FIG. 201). Of this set, B12, B2, B7, B9, 8C7F3, and H11 bound to the PSMGFR peptide, bound to the N−10 peptide, but not to the C−10 peptide (FIG. 201).

[10] = target: T7, MUC1 transmembrane cleavage product after cleavage of full-length MUC1 by MMP9 (UniProt P15941 1110-1255); experiment: flow cytometry, HCT-MUC1-18 cells + enzyme (FIG. 75K)
T7 construct: on HCT-MUC1-18 (or T47D) cells treated with MMP9; also called MUC1* generated by cleavage by MMP9; MMP9 cleaved form of MUC1
T7 sequence (looked up): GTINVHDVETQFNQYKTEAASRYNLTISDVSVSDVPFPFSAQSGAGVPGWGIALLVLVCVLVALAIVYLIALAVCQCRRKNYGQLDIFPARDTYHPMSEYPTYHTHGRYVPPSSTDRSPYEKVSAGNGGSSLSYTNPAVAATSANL
Experimental: (§3) Antibodies generated by immunization with PSMGFR, N+20/C−27, or N+9/C−9 were tested for their ability to recognize MUC1 after it is cleaved by MMP9. […] To HCT-MUC1-18 cells was added either a catalytically active MMP9 or MMP2. The enzymes, added over a range of concentrations, were incubated with the cells for 24 hours. The resultant cells were then incubated with the various antibodies and analyzed by FACS to determine which bound to a MUC1 cleavage product produced by cleavage by MMP9 (FIG. 75A-75N). […] Each bar graph is labeled with both the name of the antibody used in that assay and its cognate epitope. The order of the graphs from right to left corresponds to the distance from the cell surface of the antibody's cognate epitope. […] For the greatest degree of cancer specificity, the antibody should recognize a conformational epitope of a MUC1 cleavage product created when MUC1 is cleaved by MMP9.

[11] = target: T8, MUC1* (cleaved MUC1) as it occurs on MUC1/MUC1* positive cancer cell lines (human, UniProt P15941 1110-1255, limits assumed); experiment: flow cytometry, panel of cancer cell lines (FIGS. 80-87)
T8 construct: the cell line is named under assay; also called MUC1* positive cancer cells; ZR-75-1 aka 1500
T8 sequence (looked up): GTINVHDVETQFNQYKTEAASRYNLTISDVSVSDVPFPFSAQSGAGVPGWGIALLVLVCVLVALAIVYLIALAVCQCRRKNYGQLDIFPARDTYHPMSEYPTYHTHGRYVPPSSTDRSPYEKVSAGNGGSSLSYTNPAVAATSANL

[12] = target: T3, N+9/C-9 peptide (9 amino acids added …); experiment: ELISA (FIG. 66)
[13] = target: T1, PSMGFR peptide (Primary Sequence of the …); experiment: ELISA (FIG. 69)
Experimental: (§4) In order to further refine the epitopes to which each antibody binds, a series of smaller peptides derived from the PSMGFR sequence were synthesized: N−30 (SEQ ID NO:7), N−26 (SEQ ID NO:6), N−19 (SEQ ID NO:4), N−10/C−5 (SEQ ID NO:8), N−19/C−5 (SEQ ID NO:9). Each of the antibodies was tested in an ELISA assay for their ability to bind to this refined set of peptides, plus PSMGFR, N−10 and C−10 peptides (FIG. 67-69).

N-19/C-5 peptide = target: T9, N-19/C-5 peptide; experiment: ELISA (FIG. 69)
T9 peptide: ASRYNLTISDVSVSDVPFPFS
Experimental: as §4

[14] = target: T4, N-10 peptide (PSMGFR minus 10 amino …); experiment: ELISA (FIG. 69)
Experimental: as §4

[15] = target: B3; experiment: ELISA (FIG. 69)
Experimental: as §4

N-19 peptide = target: T10, N-19 peptide; experiment: ELISA (FIG. 69)
T10 peptide: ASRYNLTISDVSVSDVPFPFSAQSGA
Experimental: as §4

N-26 peptide = target: T11, N-26 peptide; experiment: ELISA (FIG. 69)
T11 peptide: ISDVSVSDVPFPFSAQSGA
Experimental: as §4

N-30 peptide = target: T12, N-30 peptide; experiment: ELISA (FIG. 69)
T12 peptide: SVSDVPFPFSAQSGA
Experimental: as §4

N-10/C-5 peptide = target: T13, N-10/C-5 peptide; experiment: ELISA (FIG. 69)
T13 peptide: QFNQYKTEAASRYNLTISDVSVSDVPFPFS
Experimental: as §4

[16] = target: T7, MUC1 transmembrane cleavage product …; experiment: flow cytometry, HCT-MUC1-18 cells + enzyme (FIG. 75L)
Experimental: as §3

B1: MN-E6 mouse monoclonal anti-MUC1* antibody (antibody, V domains shown)
VH: EVKVVESGGDLVKPGGSLKLSCVVSGFTFSRYGMSWVRQTPGKRLEWVATISGGGTYIYYPDSVKGRFTISRDNAKNTLYLQMSSLKSEDTAMYHCTRDNYGRNYDYGMDYWGQGTSVTVSS
VL: QIVLTQSPAIMSASPGEEVTLTCSATSSVSYIHWFQQRPGTSPKLWIYSTSNLASGVPVRFSGSGYGTSYSLTISRMEAEDAATYYCQQRSSSPFTFGSGTKLEIK
notes: mouse monoclonal raised against PSMGFR; also called Min-E6
- binding result [1]: no binding
- binding result [2]: binds
- binding result [3]: no binding
- binding result [4]: no binding (tested: 10 ug/mL or 1 ug/mL)
- binding result [5]: binds

B2: humanized MN-C2 scFv (scFv)
scFv: EVQLVESGGGLVKPGGSLRLSCAASGFTFSGYAMSWVRQAPGKGLEWVSTISSGGTYIYYPDSVKGRFTISRDNAKNSLYLQMNSLRAEDTAVYYCARLGGDNYYEYFDVWGKGTTVTVSSGGGGSGGGGSGGGGSDIVLTQSPASLAVSPGQRATITCRASKSVSTSGYSYMHWYQQKPGQPPKLLIYLASNLESGVPARFSGSGSGTDFTLTINPVEANDTANYYCQHSRELPFTFGGGTKVEIKRT
notes: also called huMN-C2scFv; huMNC2scFv; not shown: 6xHis tag detected with Anti-Penta-His antibody
- binding result [6]: no binding
- EC50 [7]: ~333 nM

Binder: B3
- binding result (NME7-AB (recombinant)): no binding
- binding result (dimeric NME1): no binding

B4: 45C11 mouse monoclonal antibody (antibody, V domains shown)
VH: EVQLQQSGADLVKPGASVKLSCTASGFNIKDTFMHWVKQRPEQGLEWIGRIDPANGNTKYDPKFQGKATITADTSSNTAYLQLSSLTSEDTAVYYCAKPYGNYGYYYALDYWGQGTSVTVSS
VL: DVQITQSPSYLAASPGETITINCRASKSISKYLAWYQEKPGKTNKLLIYSGSTLQSGIPSRFSGSGSGTDFTLTISSLEPEDFAMYYCQQHNEFPWTFGGGTKLEIK
notes: raised against N+20/C-27; also called N+20/C-27 antibody 45C11
- binding result [8]: no binding
- binding result [9]: no binding
- binding result [10]: no binding
- binding result [11]: no binding

B5: 8A9 mouse monoclonal antibody (antibody, V domains shown)
VH: EVELVESGGGLVQPGGSLRLSCATSGFTFTDHYMSWVRQPPGKALEWLGFIRNKANGYTTEYSASVKGRFTISRDNSQSILYLQMKTLRTEDSATYYCARPSDWDSWFAYWGQGTLVTVSA
VL: DVLMTQTPLSLPVSLGDQASISCRSSQSIVHSNGNTYLDWYLQKPGQSPKLLIYRVSNRFSGVPDRFSGSGSGTDFTLKISRVEAEDLGLYYCFQGSHVPWAFGGGTKLEIK
notes: raised against N+9/C-9; also called N+9/C-9 antibody 8A9
- binding result [12]: binds
- binding result [13]: no binding
- binding result (N-19/C-5 peptide): no binding
- binding result [14]: no binding
- binding result [15]: no binding
- binding result (N-19 peptide): no binding
- binding result (N-26 peptide): no binding
- binding result (N-30 peptide): no binding
- binding result (N-10/C-5 peptide): no binding
- binding result [16]: no binding
- binding result [11]: no binding
